Reference: article PMC5502743
Where two headings read alike, the source gives them in different places.

Legend:
Experiment in all cases: single-molecule FRET imaging
[1] = target: Cy3B*/Cy7*-labeled β2Δ6-148C/266C (full-length, minimal cysteine β2 adrenergic receptor mutant) (UniProt P07550)
[2] = target: Cy3B*/Cy7*-labeled β2Δ6-148C/266C (full-length, minimal cysteine β2 adrenergic receptor mutant) (UniProt P07550); remark: listed apart in the source
[3] = target: Cy3B*/Cy7*-labeled β2Δ6-148C/266C (full-length, minimal cysteine β2 adrenergic receptor mutant) (UniProt P07550); remark: listed apart in the source
[4] = target: Cy3B*/Cy7*-labeled β2Δ6-148C/266C (full-length, minimal cysteine β2 adrenergic receptor mutant) (UniProt P07550); remark: listed apart in the source
[5] = target: Cy3B*/Cy7*-labeled β2Δ6-148C/266C (full-length, minimal cysteine β2 adrenergic receptor mutant) (UniProt P07550); remark: listed apart in the source
[6] = target: Cy3B*/Cy7*-labeled β2Δ6-148C/266C (full-length, minimal cysteine β2 adrenergic receptor mutant) (UniProt P07550); remark: listed apart in the source

Substance: Gs heterotrimer (Gαs, Gβ and Gγ) (from UniProt P63092 1-394; P62873 1-340; P59768 1-71) (complex)
- k (high→low) (transition rate from high- to low-FRET states) [1]: 0.7 s⁻¹
- k (high→low) (transition rate from high- to low-FRET states) [2]: 0.7 s⁻¹
- k (high→low) (transition rate from high- to low-FRET states) [3]: 1.1 s⁻¹
- k (high→low) (transition rate from high- to low-FRET states) [4]: 0.4 s⁻¹
- k (high→low) (transition rate from high- to low-FRET states) [5]: 0.7 s⁻¹
- k (high→low) (transition rate from high- to low-FRET states) [6]: 0.6 s⁻¹
- percent Gs coupling [6]: 5 to 20%
